Data published in patent CN110218251A (FUZHOU MAIXIN BIOTECHNOLOGY DEV CO LTD, dated 2019).

Target: T1, MSH2蛋白 (endogenous, in HCT8 and Biu-87 cell lysates and in human tissue sections) (human, UniProt P43246 2-934)
T1 construct: Endogenous protein; also called MutS homolog 2
Test: IHC on tonsil tissue

T1 sequence (P43246 2-934 limits assumed): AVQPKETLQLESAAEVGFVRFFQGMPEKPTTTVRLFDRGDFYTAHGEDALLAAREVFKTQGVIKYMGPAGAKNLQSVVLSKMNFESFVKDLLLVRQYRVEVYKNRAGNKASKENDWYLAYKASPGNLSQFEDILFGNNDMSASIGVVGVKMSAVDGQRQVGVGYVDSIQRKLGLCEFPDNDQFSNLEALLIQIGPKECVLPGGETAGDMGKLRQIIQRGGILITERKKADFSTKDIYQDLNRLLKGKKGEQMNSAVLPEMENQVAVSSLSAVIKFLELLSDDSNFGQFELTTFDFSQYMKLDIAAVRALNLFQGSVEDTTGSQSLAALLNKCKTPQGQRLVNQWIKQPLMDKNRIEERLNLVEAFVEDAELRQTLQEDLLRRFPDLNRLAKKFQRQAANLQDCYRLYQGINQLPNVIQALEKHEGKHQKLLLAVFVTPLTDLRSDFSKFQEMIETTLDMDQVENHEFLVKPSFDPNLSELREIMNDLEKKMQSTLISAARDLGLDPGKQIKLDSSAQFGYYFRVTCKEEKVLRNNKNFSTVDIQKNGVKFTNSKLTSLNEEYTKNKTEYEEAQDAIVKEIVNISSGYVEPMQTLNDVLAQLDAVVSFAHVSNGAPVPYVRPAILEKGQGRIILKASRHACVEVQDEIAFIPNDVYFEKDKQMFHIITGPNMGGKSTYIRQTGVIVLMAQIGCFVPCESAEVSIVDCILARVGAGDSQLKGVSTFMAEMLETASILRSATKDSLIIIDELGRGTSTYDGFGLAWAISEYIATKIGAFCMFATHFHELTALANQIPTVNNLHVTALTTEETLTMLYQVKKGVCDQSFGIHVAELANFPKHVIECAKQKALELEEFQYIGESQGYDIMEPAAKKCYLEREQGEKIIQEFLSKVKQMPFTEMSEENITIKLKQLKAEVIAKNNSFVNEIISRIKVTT

B1: 抗MSH2蛋白单克隆抗体(1B11-14-16) (antibody, V domains shown)
VH: QVQLQQSGAELMKPGASVRISCKATGYTFTRYWIEWVKERPGHGLEWIGEILPGSGGTNYNEKFKGKATFTADTSSNTVHMQLNSLTSEDSAVYYCVKREGPYWGRGTLVTVSA
VL: DVLMTQTPLSLPVSLGDQASISCRSSQSIVYRTGSTFLEWYLQKPGQSPKLLIYKVSNRFSGVPDRFSGSGSGTDFTLKISRVEAEDLGVYYCFQGSHLPYTFGGGTKLEIK
notes: also called MSH2(1B11-14-16)单克隆抗体; 1B11-14-16的MSH2
  binding result: binds
